Assay results from PMC7717961, “O-GlcNAcylation Suppresses the Ion Current IClswell by Preventing the Binding of the Protein ICln to α-Integrin” (Frontiers in Cell and Developmental Biology, 2020).

Assays:
[1] = patch clamp, IClswell in wild-type ICln-transfected cells; conditions: control: vehicle (0.1% DMSO plus 5 mM D-glucose)
[2] = target: T1, integrin αIIbshort-EYFP (amino acids 987-1039 of the human integrin αIIb chain fused to EYFP) (human, UniProt P08514-1 987-1039); assay: FRET or BRET; acceptor photobleaching FRET in fixed NIH/3T3 cells transfected for 48 h; donor ECFP-ICln, acceptor αIIbshort-EYFP; FRET efficiency in three-four plasma membrane ROIs of each cell; O-GlcNAcylation left unmodified, increased with 100 μM PUGNAc plus 5 mM glucosamine for 1 h, or reduced by co-transfection of OGA-L; conditions: partners not purified
T1 construct: human integrin αIIb chain, amino acids 987-1039 of NP_000410.2 (integrin αIIbshort); also called αIIbs-EYFP; αIIb integrin; source: NIH/3T3, transfected for 48 h, in fixed cells; not shown: EYFP, C-terminal, kept
T1 sequence (P08514 987-1039): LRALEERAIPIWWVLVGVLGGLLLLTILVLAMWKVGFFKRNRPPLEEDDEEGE

Binder | other: channel current, other: % variation of current at +100 mV [1] | FRET efficiency relative to wild-type ICln [2] [fold]
ICln: 100 μM PUGNAc plus 5 mM glucosamine (protein) parent chain: MSFLKSFPPPGPAEGLLRQQPDTEAVLNGKGLGTGTLYIAESRLSWLDGSGLGFSLEYPTISLHALSRDRSDCLGEHLYVMVNAKFEEESKEPVADEEEEDSDDDVEPITEFRFVPSDKSALEAMFTAMCECQALHPDPEDEDSDDYDGEEYDVEAHEQGQGDIPTFYTYEEGLSHLTAEGQATLERLEGMLSQSVSSQYNMAGVRTEDSIRDYEDGMEVDTTPTVAGQFEDADVDH | decreases | 
ECFP-ICln Ser67Ala (natural protein, UniProt P54105 1-237, looked up, ICln with Ser67Ala, made by site-directed mutagenesis of the vector with the wild-type ICln cDNA; also called Ser67Ala ICln; source: NIH/3T3, transfected for 48 h, in fixed cells; not shown: ECFP, N-terminal, kept) MSFLKSFPPPGPAEGLLRQQPDTEAVLNGKGLGTGTLYIAESRLSWLDGSGLGFSLEYPTISLHALARDRSDCLGEHLYVMVNAKFEEESKEPVADEEEEDSDDDVEPITEFRFVPSDKSALEAMFTAMCECQALHPDPEDEDSDDYDGEEYDVEAHEQGQGDIPTFYTYEEGLSHLTAEGQATLERLEGMLSQSVSSQYNMAGVRTEDSIRDYEDGMEVDTTPTVAGQFEDADVDH |  | ~3
